Experimental data reported in patent publication US20220363763A1 (ABL BIO, published 2022).

T1: recombinant his-tag human LAG3-ECD protein (human, UniProt P18627 23-450)
T1 construct: extracellular domain; not shown: his tag
T1 sequence (looked up): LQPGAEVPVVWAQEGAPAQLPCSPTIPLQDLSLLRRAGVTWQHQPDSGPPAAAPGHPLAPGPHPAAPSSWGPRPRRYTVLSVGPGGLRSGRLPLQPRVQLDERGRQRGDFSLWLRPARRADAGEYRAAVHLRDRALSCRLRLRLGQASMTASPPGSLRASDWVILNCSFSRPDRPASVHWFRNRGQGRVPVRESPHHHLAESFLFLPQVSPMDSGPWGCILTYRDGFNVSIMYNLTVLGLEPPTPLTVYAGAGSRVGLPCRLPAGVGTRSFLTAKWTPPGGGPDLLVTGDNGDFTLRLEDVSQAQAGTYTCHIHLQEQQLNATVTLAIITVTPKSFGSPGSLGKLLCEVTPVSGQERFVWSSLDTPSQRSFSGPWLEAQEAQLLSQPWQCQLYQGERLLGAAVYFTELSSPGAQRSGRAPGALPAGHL

T2: recombinant human LAG-3-ECD-human IgG1 fusion protein (human, UniProt P18627 23-450, biotin-labeled in the MHC class II blocking assays)
T2 construct: extracellular domain; also called LAG-3-huFc; LAG-3-ECD-huFc; not shown: human IgG1 Fc
T2 sequence (looked up): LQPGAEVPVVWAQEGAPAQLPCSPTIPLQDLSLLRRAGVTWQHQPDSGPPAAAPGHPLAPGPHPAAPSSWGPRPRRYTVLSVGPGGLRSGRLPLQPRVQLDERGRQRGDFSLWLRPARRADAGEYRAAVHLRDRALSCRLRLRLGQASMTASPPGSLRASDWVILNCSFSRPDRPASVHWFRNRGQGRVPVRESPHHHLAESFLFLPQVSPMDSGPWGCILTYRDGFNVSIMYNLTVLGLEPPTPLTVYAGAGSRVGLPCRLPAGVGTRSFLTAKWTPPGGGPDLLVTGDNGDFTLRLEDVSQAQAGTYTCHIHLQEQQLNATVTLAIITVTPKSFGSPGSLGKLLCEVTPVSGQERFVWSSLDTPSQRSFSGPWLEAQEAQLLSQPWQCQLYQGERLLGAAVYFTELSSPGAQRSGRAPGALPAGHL

T3: rat LAG3 ECD-Fc protein (rat, UniProt Q5BK54 24-442)
T3 construct: extracellular domain; not shown: Fc part
T3 sequence (looked up): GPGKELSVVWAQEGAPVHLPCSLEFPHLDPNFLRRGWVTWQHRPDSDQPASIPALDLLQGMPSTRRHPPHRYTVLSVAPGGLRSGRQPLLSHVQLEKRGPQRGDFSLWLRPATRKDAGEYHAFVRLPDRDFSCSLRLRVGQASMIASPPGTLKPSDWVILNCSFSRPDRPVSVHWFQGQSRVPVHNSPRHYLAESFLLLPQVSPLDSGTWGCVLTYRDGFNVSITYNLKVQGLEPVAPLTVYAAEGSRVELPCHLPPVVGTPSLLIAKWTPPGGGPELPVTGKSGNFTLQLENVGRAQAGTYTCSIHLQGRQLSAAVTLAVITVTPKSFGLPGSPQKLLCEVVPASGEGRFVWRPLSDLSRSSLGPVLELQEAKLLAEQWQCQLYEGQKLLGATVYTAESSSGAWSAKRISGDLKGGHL

T4: mouse LAG3 ECD-Fc protein (mouse, UniProt Q61790 24-442)
T4 construct: extracellular domain; not shown: Fc part
T4 sequence (looked up): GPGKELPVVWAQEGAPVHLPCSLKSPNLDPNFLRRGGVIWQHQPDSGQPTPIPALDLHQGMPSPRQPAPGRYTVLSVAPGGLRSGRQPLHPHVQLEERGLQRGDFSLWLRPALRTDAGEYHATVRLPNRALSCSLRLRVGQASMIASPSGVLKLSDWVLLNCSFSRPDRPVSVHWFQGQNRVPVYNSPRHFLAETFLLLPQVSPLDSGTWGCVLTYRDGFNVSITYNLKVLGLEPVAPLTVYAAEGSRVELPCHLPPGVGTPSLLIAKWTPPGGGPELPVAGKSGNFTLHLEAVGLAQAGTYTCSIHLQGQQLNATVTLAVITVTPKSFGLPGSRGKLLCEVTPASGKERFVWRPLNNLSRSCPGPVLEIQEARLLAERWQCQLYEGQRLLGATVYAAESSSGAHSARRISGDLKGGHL


Experiments:
[1] = target: T1, recombinant his-tag human LAG3-ECD …; assay: SPR Biacore T200, antibody captured by anti-human Fc, LAG3-ECD-his injected
Method in brief: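 Antibodies captured on chip-coated anti-human Fc; his-tag human LAG3-ECD injected at serial concentrations of 0-4 nM, flow 30 μl/min. Dissociation phase 900 s or 550 s.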

[2] = target: T2, recombinant human LAG-3-ECD-human IgG1 …; assay: ELISA on coated human LAG3 ECD-Fc; EC50 table has no unit, x axis Ab(nM)
Protocol: (§1) To evaluate the capability of the anti-LAG-3 antibodies to bind to human, rat, and mouse LAG3 the antibodies identified in Example 2.1 were evaluated for their binding property through ELISA. The human, rat and mouse LAG3 ECD-Fc protein were coated to ELISA plate at 1 μg/ml with 100 μl/well. Antibodies from Example 1 were serially diluted with ELISA diluent buffer. […] The resulting plates were washed and then labeled with anti-human IgG(Fab)-HRP antibody. The S31 can only bind to human LAG3. The S27 and T99 can bind to human LAG3 and rat/mouse LAG3 with lower potency. The S119 antibody can bind to human, rat and mouse LAG3 at high potency (FIGS. 22A-22D).

[3] = target: T3, rat LAG3 ECD-Fc protein; assay: ELISA on coated rat LAG3 ECD-Fc; EC50 table has no unit, x axis Ab(nM); fit value of a flat curve
Protocol: as §1

[4] = target: T4, mouse LAG3 ECD-Fc protein; assay: ELISA on coated mouse LAG3 ECD-Fc; EC50 table has no unit, x axis Ab(nM); fit value of a flat curve
Protocol: as §1

[5] = target: T2, recombinant human LAG-3-ECD-human IgG1 …; assay: flow cytometry; blocking of biotin-LAG-3-ECD-huFc binding to MHC class II on Raji cells; the curve ends at about 20 nM without a lower plateau
Protocol: (§2) To evaluate the ability of anti-LAG-3 antibodies to block the binding of sLAG-3 to MHC class II receptor, an in vitro binding assay was designed using biotin-labeled LAG-3-ECD-huFc fusion proteins and Raji cells expressing MHC class II receptor. Antibodies from Example 1 were serially diluted from 20 μg/mL with FACS buffer and pre-incubated with 6 μg/mL of biotin-LAG-3-ECD-huFcc for 30 min at room temperature. The antibody mixture was then added to FcR blocked Raji cells and incubated for 30 min on ice. Cells were then washed with FACS buffer and subsequently stained with streptavidin PE for 30 min on ice and subsequently washed once with FACS buffer. Labeled cells were evaluated for fluorescence intensity by flow cytometry in a BD FACSCalibur™.

[6] = target: T2, recombinant human LAG-3-ECD-human IgG1 …; assay: ELISA on coated D1-D4 huFc; EC50 table has no unit, x axis Ab(nM)
Protocol: Briefly, D1-D4 huFc or ΔD1-D2 huFc was coated at 0.5 μg/ml overnight and then blocked by 5% BSA in PBS. The serially diluted antibodies (starting from 1 μg/ml and 1:3 serial dilution for 10 doses) were incubated with the coated antigen for 1 hr at room temperature. The resulting plates were washed with PBS/T and incubated with goat anti-mouse IgG-HRP for 1 h at room temperature. The plates were developed with TMB substrate and analyzed by spectrophotometer at OD 450-630 nm.

[7] = target: T2, recombinant human LAG-3-ECD-human IgG1 …; assay: flow cytometry; blocking of biotin-LAG-3-ECD-huFc binding to MHC class II on Raji cells
Protocol: as §2, with “Antibodies from Example 1 were serially diluted from 20 μg/mL with FACS buffer and pre-incubated with 6 μg/mL of biotin-LAG-3-ECD-huFcc for 30 min at room temperature.” left out

[8] = target: T3, rat LAG3 ECD-Fc protein; assay: ELISA on coated rat LAG3 ECD-Fc; EC50 table has no unit, x axis Ab(nM)
Protocol: as §1

[9] = target: T4, mouse LAG3 ECD-Fc protein; assay: ELISA on coated mouse LAG3 ECD-Fc; EC50 table has no unit, x axis Ab(nM)
Protocol: as §1

[10] = target: T2, recombinant human LAG-3-ECD-human IgG1 …; assay: flow cytometry; blocking of biotin-LAG-3-ECD-huFc binding to MHC class II on Raji cells; remark: listed apart in the source
Protocol: as §2

Kd [1]	koff [1]	kon [1]	EC50 [2]	EC50 [3]	EC50 [4]	IC50 [5]	EC50 [6]	IC50 [7]	EC50 [8]	EC50 [9]	IC50 [10]	Binder
0.03 nM	6.25e-05 s⁻¹	2.08e+06 M⁻¹ s⁻¹	0.279 nM	~271 µM	119 nM	82.6 nM						NLAG3-HDB169-S31 (antibody, human IgG1, V domains shown, Short label tied by its unique suffix) VH: QVQLVQSGAEVKKPGSSVKVSCKASGGTFSSYAISWVRQAPGQGLEWMGGIIPIFGTANYAQKFQGRVTITADESTSTAYMELSSLRSEDTAVYYCARDAGPVGYYGMDVWGQGTTVTVSS VL: AIRMTQSPSTLSASVGDRVTITCRASQGIAGWLAWYQQKPGKAPKLLIYAASSLQSGVPSRFSGSASGTDFTLTISNLQPEDFATYYCQQAKSFPLTFGGGTKVEIKR
							0.0979 nM	21.4 nM				147H mouse monoclonal antibody (antibody, V domains shown, Mouse hybridoma antibody) VH: QVQLQQSGSELVRPGTSVKISCKASGYTFTNYWLGWIKQRPGHGLEWIGDIYPGGDYINYNEKFKGKATLSADTSSSTAYMQLSSLTSEDSAVYFCARPNLPGDYWGQGTSVTVSS VL: DIVMTQAAFSNPVTLGTSASISCRSSKSLLHSNGITYLYWYLQKPGQSPQLLIYQVSNLASGVPGRFSGSGSGTDFTLRISRVEAEDVGVYYCAQNLELPWTFGGGTKLEIK
0.00687 nM	0.000149 s⁻¹	2.17e+07 M⁻¹ s⁻¹	0.0321 nM						0.0387 nM	0.0724 nM	9.29 nM	NLAG3-HDB169-S119 (antibody, human IgG1, V domains shown, Short label tied by its unique suffix) VH: QVQLVQSGAEVKKPGSSVKVSCKASGGTFSSYAISWVRQAPGQGLEWMGGIIPIFGTANYAQKFQGRVTITADESTSTAYMELSSLRSEDTAVYYCAASTLRVPNPPYWGQGTLVTVSS VL: EIVLTQSPGTLSLSPGERATLSCRASQSVSSYLAWYQQKPGQAPRLLIYGISSRATGIPDRFSGSGSGTDFTLTISSLQPEDFATYYCQQANNFPLTFGGGTKLEIKR
